Legend:
Test in all cases: holdup assay
Design in all cases: key: below the threshold = too weak to quantify, mostly under pKd 3.1 to 4
Conditions in all cases: plain residues with an end cap or a label only (N-terminal biotin on a linker: ttds)
[1] = biological target: T1, DFNB31_2, Q9P202
T1 sequence (Q9P202 274-371, limits assumed, looked up): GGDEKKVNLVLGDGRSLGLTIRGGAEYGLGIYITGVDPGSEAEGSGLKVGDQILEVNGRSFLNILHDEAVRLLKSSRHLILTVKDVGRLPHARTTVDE

[2] = biological target: PARD3_3, Q8TEW0
[3] = biological target: ARHGEF12, Q9NZN5-2
[4] = biological target: GRID2IP_1, A4D2P6
[5] = biological target: DLG1_1, Q12959
[6] = biological target: T2, CARD11, Q9BXL7
T2 sequence (Q9BXL7 662-765, limits assumed, looked up): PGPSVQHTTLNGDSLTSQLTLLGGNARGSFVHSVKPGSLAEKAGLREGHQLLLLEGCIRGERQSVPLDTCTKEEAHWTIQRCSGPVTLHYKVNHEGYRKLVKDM

[7] = biological target: MAGI1_1, Q96QZ7
[8] = biological target: T3, MPP7, Q5T2T1
T3 sequence (Q5T2T1 134-230, limits assumed, looked up): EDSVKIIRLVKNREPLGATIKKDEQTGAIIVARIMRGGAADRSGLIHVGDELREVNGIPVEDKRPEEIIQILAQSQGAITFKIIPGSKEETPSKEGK

[9] = biological target: FRMPD2_3, Q68DX3
[10] = biological target: T4, TX1BP3, O14907
T4 sequence (O14907 10-122, limits assumed, looked up): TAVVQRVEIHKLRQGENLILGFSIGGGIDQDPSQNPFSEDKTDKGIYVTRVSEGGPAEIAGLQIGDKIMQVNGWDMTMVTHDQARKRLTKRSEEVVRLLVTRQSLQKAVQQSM

[11] = biological target: MAGI2_4, Q86UL8
[12] = biological target: T5, RAPGEF6, Q8TEU7
T5 sequence (Q8TEU7 525-625, limits assumed, looked up): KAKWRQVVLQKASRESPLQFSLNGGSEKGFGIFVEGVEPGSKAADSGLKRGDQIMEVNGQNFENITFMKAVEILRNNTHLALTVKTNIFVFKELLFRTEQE

[13] = biological target: SCRIB_2, Q14160
[14] = biological target: T6, PTPN13_1, Q12923
T6 sequence (Q12923 1088-1188, limits assumed, looked up): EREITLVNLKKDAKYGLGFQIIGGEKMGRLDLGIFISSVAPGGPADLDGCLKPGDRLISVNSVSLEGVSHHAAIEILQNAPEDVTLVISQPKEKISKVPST

[15] = biological target: CASK, O14936
[16] = biological target: T7, SYNJ2BP, P57105
T7 sequence (P57105 8-110, limits assumed, looked up): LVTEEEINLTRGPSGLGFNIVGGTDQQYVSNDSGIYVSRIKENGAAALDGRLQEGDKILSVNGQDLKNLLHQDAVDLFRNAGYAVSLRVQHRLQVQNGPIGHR

[17] = biological target: DLG4_2, P78352
[18] = biological target: MAGI3_2, Q5TCQ9
[19] = biological target: T8, DLG3_2, Q92796
T8 sequence (Q92796 221-321, limits assumed, looked up): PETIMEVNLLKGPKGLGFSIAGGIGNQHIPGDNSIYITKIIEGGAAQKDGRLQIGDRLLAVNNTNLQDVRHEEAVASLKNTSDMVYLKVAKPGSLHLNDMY

[20] = biological target: Inadl_5, Q8NI35
[21] = biological target: TJP1_3, Q07157
[22] = biological target: MAGI2_2, Q86UL8
[23] = biological target: T9, LNX2_2, Q8N448
T9 sequence (Q8N448 334-432, limits assumed, looked up): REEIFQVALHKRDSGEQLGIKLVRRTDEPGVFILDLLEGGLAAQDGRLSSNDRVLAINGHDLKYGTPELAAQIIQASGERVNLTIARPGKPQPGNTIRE

[24] = biological target: T10, GRIP1_5, Q9Y3R0
T10 sequence (Q9Y3R0 568-668, limits assumed, looked up): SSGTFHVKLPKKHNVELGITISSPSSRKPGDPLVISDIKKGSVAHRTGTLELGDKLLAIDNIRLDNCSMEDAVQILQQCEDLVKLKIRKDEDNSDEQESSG

[25] = biological target: Inadl_1, Q8NI35
[26] = biological target: T11, GRIP1_2, Q9Y3R0
T11 sequence (Q9Y3R0 145-248, limits assumed, looked up): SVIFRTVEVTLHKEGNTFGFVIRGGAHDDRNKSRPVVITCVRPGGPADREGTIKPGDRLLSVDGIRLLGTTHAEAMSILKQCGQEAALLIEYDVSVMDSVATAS

MAGI2_2, Q86UL8, sequence (Q86UL8 410-522): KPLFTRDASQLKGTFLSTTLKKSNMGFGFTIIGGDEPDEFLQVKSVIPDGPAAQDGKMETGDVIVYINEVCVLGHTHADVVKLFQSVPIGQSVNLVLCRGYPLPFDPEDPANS
FRMPD2_3, Q68DX3, sequence (Q68DX3 1073-1166): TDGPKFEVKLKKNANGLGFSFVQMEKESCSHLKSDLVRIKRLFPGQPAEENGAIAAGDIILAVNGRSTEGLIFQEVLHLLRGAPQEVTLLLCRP
Inadl_5, Q8NI35, sequence (Q8NI35 673-780): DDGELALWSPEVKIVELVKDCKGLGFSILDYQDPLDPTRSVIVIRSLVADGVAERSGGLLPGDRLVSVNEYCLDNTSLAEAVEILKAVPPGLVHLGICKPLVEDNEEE
Inadl_1, Q8NI35, sequence (Q8NI35 113-229): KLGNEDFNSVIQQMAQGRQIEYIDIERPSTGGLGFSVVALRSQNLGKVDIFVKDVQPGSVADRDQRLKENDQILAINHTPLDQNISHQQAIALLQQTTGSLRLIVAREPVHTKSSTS
MAGI2_4, Q86UL8, sequence (Q86UL8 772-865): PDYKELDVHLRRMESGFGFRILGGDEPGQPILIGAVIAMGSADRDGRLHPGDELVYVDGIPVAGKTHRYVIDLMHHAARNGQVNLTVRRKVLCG
SCRIB_2, Q14160, sequence (Q14160 857-960): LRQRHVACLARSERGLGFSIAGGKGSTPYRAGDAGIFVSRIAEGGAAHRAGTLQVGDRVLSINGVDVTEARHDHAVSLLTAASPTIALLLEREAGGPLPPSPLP
TJP1_3, Q07157, sequence (Q07157 416-512): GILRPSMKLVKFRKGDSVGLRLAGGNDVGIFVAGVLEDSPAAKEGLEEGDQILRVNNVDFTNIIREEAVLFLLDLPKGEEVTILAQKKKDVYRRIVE
MAGI1_1, Q96QZ7, sequence (Q96QZ7 1-106): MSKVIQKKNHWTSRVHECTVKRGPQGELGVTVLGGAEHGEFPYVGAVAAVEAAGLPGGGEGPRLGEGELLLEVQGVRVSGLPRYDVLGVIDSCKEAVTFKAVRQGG
ARHGEF12, Q9NZN5-2, sequence (Q9NZN5 other isoform, or with tags, fused parts or gaps): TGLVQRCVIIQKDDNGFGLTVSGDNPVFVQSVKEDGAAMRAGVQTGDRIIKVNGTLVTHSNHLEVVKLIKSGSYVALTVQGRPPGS
PARD3_3, Q8TEW0, sequence (Q8TEW0 582-685): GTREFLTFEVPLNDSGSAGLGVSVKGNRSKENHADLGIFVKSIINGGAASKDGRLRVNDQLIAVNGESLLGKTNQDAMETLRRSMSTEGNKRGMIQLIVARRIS
CASK, O14936, sequence (O14936 487-570): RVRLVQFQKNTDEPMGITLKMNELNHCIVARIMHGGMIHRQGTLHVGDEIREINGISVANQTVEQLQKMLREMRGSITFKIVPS
GRID2IP_1, A4D2P6, sequence (A4D2P6 1-87): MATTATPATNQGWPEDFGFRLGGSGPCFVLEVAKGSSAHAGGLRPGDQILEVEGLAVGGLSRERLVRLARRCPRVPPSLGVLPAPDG
MAGI3_2, Q5TCQ9, sequence (Q5TCQ9 398-503): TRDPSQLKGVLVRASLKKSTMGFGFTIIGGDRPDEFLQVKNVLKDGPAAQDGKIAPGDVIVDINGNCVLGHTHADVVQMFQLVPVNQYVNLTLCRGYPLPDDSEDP
DLG4_2, P78352, sequence (P78352 155-259): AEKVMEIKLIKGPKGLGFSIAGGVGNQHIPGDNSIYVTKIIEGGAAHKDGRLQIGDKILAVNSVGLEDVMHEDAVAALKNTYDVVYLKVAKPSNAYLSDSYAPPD

STLTIFETAL [ABCC4, O15439]
pKd [1]: below the threshold | pKd [2]: 4.31 | pKd [3]: 5.21 | pKd [4]: 3.48 | pKd [5]: 4.46 | pKd [6]: below the threshold | pKd [7]: below the threshold | pKd [8]: 3.56 | pKd [9]: below the threshold | pKd [10]: 5.11 | pKd [11]: 3.54 | pKd [12]: below the threshold | pKd [13]: 4.92 | pKd [14]: below the threshold | pKd [15]: below the threshold | pKd [16]: 5.56 | pKd [17]: 4.23 | pKd [18]: 4 | pKd [19]: 4.35 | pKd [20]: below the threshold | pKd [21]: below the threshold | pKd [22]: 4.13 | pKd [23]: below the threshold | pKd [24]: below the threshold | pKd [25]: 3.53 | pKd [26]: below the threshold
